These results are taken from patent publication US20250084158A1.

Assay [1] concerns the target human CLL-1 on cells (human) (UniProt Q5QGZ9). Description: cell-based or functional assay.
Assay [2] has the same target. Description: FACS (PE-anti-human IgG), HL-60 cells.
For assay [3] the target is unchanged. Description: FACS (PE-anti-human IgG), U937 cells.

In general, EC50 refers to the concentration needed to bring the measured effect to its halfway point. Read a high EC50 as weaker potency.

Chain of human CLL-1 on cells (human) (Q5QGZ9 whole entry): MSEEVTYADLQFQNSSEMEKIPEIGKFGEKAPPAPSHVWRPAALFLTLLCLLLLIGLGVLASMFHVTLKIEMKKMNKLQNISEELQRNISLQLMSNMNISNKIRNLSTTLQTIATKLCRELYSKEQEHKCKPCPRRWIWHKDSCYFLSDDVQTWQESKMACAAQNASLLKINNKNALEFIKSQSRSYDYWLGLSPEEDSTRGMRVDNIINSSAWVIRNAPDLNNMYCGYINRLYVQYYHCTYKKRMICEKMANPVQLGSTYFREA

In assay [1], MCLA-117 (bispecific antibody) had a CD25 on CD4 T cells, HL60 targets, EC50 of 7.12 nM; a CD25 on CD4 T cells, U937 targets, EC50 of 2.53 nM; a CD25 on CD8 T cells, HL60 targets, EC50 of 7.68 nM; a CD25 on CD8 T cells, U937 targets, EC50 of 2.88 nM. In assay [1], this substance registered a CD69 on CD4 T cells, HL60 targets, EC50 of 2.33 nM; a CD69 on CD4 T cells, U937 targets, EC50 of 1.19 nM; a CD69 on CD8 T cells, HL60 targets, EC50 of 2.89 nM; a CD69 on CD8 T cells, U937 targets, EC50 of 0.713 nM. This substance displayed a U937 cell lysis, EC50 in assay [1] of 0.128 nM. Besides, the EC50 in assay [2] was 35.1 nM. In addition, the EC50 in assay [3] turned out to be 4.53 nM.
